T1: 15.5K (His-15.5K) (human, UniProt P55769 1-128)
T1 sequence: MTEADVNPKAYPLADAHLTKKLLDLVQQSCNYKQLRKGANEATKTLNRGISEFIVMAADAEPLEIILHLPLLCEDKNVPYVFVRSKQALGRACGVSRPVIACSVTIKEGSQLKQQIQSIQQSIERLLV

B1: zebrafish U8-1 snoRNA, mature (structured_RNA)
RNA: GCAUCAGUGAGGUUUAUCCUUACCUGUUGUCUUAGAAAUAAGACUACAGCACAUGAUGAUUGGAUUCUAUGAAUGCGUGAUUAUAUUCUGUAUUCUUAAAGGGUUUGCAACACCUUUAUGAAUCCUGUCUGAU
B2: zebrafish U8-5 snoRNA, mature (structured_RNA)
RNA: GCAUCAGUGAGGUUUAUCCUUGCCUGUUGUCUUAGAAUUAAGACUUCAGCACAUGAUGAUUGGAUUCUAUGAAUACAUGAUUAUACUCUGUGUUCAUAUAGGGCUUGUCACCCAUUUAUGAAUCCUGUCUGAU
B3: zebrafish U8-4 snoRNA, mature (structured_RNA)
RNA: GUAUCAGUGAGGUUUAUCCUUACCUGUUGUCUUAGAAAUAAGACUGCAGUAUAUGAUGAUUGGAUUCUAUGAAUAUGUGACUAUGUUUGUACUGUAUUUGUACAUGACUUGCAACCUCUUUAUAAAUCCUAUCUGAU
B4: zebrafish U8-2 snoRNA, mature (structured_RNA)
RNA: ACAUCAGUGAGGUUUGUCCUACCUGUUUUAGAAAUAAGACUUCAGCACAUGAUGAUUGGAUUCUAUGAAUAUGUGAUUAUAUUCUGUAUUCGUAUAGGGUUCACAACUCUGGAUCCUAUGUGAU

The binders below were run against T1, 15.5K (His-15.5K) (assay: EMSA).

Binding result, binds:
B1
B2
B3
B4
